Consider one protein from doi:10.1101/2020.03.30.016154 (bioRxiv, 2020).

This data set concerns the molecule itself. As to the kind of experiment: cryo-EM structure.

B1: full-length mouse serotonin (3A) receptor (5-HT3AR) (receptor, UniProt P23979-2 24-483, looked up)
chain: SRRRATQARDTTQPALLRLSDHLLANYKKGVRPVRDWRKPTTVSIDVIMYAILNVDEKNQVLTTYIWYRQYWTDEFLQWTPEDFDNVTKLSIPTDSIWVPDILINEFVDVGKSPNIPYVYVHHRGEVQNYKPLQLVTACSLDIYNFPFDVQNCSLTFTSWLHTIQDINITLWRSPEEVRSDKSIFINQGEWELLEVFPQFKEFSIDISNSYAEMKFYVIIRRRPLFYAVSLLLPSIFLMVVDIVGFCLPPDSGERVSFKITLLLGYSVFLIIVSDTLPATAIGTPLIGVYFVVCMALLVISLAETIFIVRLVHKQDLQRPVPDWLRHLVLDRIAWILCLGEQPMAHRPPATFQANKTDDCSAMGNHCSHVGGPQDLEKTPRGRGSPLPPPREASLAVRGLLQELSSIRHFLEKRDEMREVARDWLRVGYVLDRLLFRIYLLAVLAYSITLVTLWSIWHYS
One may read the stoichiometry N as a count of units in the complex or per binding partner. For B1, the “stoichiometry N” value was found to be 5.
